For experiment [1], the target named is Recombinant Bet v1 (major birch pollen allergen Bet v1) (birch) (UniProt P15494). Briefly: BLI. For orientation: In BLI a coated tip is dipped into the sample, and binding shifts an interference pattern.
Experiment [2] shares this target. The experiment can be described thus: ELISA. Background: An ELISA detects its analyte on a solid surface through an enzyme-linked reagent.
Experiment [3] addresses T1, Recombinant Bet v1 (major birch pollen allergen Bet v1) (birch, biotin (biotinylated rBet v1 in the flow cytometry and in the IgE-blocking ELISA; site not stated)).
T1 construct: Bet v1, major allergen of birch pollen (PR-10 family); codon-optimized synthetic gene in pET29b; PDB 4A81 was the Bet v1 model fitted into the cryo-EM map; One molecule for the plain and the biotinylated protein: same construct; also called rBet v1; biotinylated rBet v1
T1 chain: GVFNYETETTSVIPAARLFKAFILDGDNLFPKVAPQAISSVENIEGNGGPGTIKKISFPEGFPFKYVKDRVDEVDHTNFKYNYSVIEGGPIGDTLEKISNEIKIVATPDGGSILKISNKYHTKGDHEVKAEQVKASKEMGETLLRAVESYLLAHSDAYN
Briefly: cryo-EM structure; Bet v1 complexed with threefold molar excess of Fab08 and Fab10; reconstruction at 4.8 Å, Cα positioning. To be noted: both partners purified.

Experiment [4] has as its target T1, Recombinant Bet v1 (major birch pollen …). Briefly: flow cytometry on cells; transduced primary human T cells stained with biotinylated rBet v1 (1 μg/ml) and streptavidin-PE, 30 min at 4°C; mCherry reporter. The note with it: one partner purified. (In general: Flow cytometry measures light scatter and fluorescence of single cells or particles in a stream.)

What is called Kd is the concentration at which binding is half-saturated. As usually defined, the EC50 is the concentration needed to bring the measured effect to its halfway point. For the molecule “mAb 11 (human anti-Bet v1 IgG monoclonal antibody) (from UniProt P01857)”, in experiment [1], the Kd was 3.61 nM. For the same molecule, in experiment [2], the EC50 came to 4.26 ng/mL.

Take “eB20 (human anti-Bet v1 antibody from an IgE clone) (from UniProt P01857)”: in experiment [2], the EC50 was found to be 8.89 ng/mL.

For “mAb 10 (human anti-Bet v1 IgG monoclonal antibody) (from UniProt P01857)”, the EC50 in experiment [2] came out at 7.26 ng/mL.

B1: Fab10 (Fab of mAb 10) (Fab, V domains shown)
VH: EVQLVESGGGLVQPGGSLRLSCTASGFTFSSYMTHWVRQAPGKGLEWVSHISGDGTNTTYADTVKGRFFTSRDNVKNTLFLQMDSLRAEDTAVYFCARGSWYTTGWHRNYYFGMDVWGQGTTVTVSS
VL: DIVMTQSPLSLPVTPGEPASISCRSSQSLLHSNGYNYLDWYLQKPGRSPQLLIYLGSHRASGVPDRFSGDGSGTDFTLKISRVEAEDVGVYYCMQVLQTPSFGGGTKVEIK
notes: heavy variable domain as the heavy chain of m4 (mAb 10); constant part of the Fab heavy chain; as the light chain of m4 (mAb 10); The production of the Fabs is not described
With B1, the binding result in experiment [3] is recorded as “binds”.

B2: CAlleR 10 (anti-Bet v1 chimeric allergen receptor with the scFv of mAb 10, CD28 and CD3ζ domains) (other)
VH: EVQLVESGGGLVQPGGSLRLSCTASGFTFSSYMTHWVRQAPGKGLEWVSHISGDGTNTTYADTVKGRFFTSRDNVKNTLFLQMDSLRAEDTAVYFCARGSWYTTGWHRNYYFGMDVWGQGTTVTVSS
VL: DIVMTQSPLSLPVTPGEPASISCRSSQSLLHSNGYNYLDWYLQKPGRSPQLLIYLGSHRASGVPDRFSGDGSGTDFTLKISRVEAEDVGVYYCMQVLQTPSFGGGTKVEIK
notes: scFv derived from mAb 10 (variable domains as in m4; GenBank within PZ143166-PZ143179); CD28 hinge, transmembrane and intracellular (costimulatory) domains; CD3ζ intracellular signaling domain; Second-generation CAR design in pCDH-EF1-FHC (Addgene 64874), as in Muller et al., 2021a; source: primary human T cells, lentivirally transduced, on cells
Turning to B2, in experiment [4], the binding result is listed as “binds”.

B3: Fab08 (Fab of mAb 8) (Fab, V domains shown)
VH: EVQLVQSGAEVKKPGDSLKISCKGSGYSFSNFWIGWVRQMPGKGLELMGIVYPGDSDTKYRPSFLGQVTISADKSIATAFLQWSRLTASDTAIYYCARLGATYAGADFWGQGTLVTVSS
VL: DIQMTQSPSSLSASVGDRVTITCRASQTIVTYLNWYQQKPGKAPKLLIYAASNLQSGVPSRFSGSGSGTDFTLTISSLQPEDFAIYYCQQSYAAFGEGTKVEIK
notes: heavy variable domain as the heavy chain of m3 (mAb 8, IGHV5-51); constant part of the Fab heavy chain; as the light chain of m3 (mAb 8, IGKV1-39); The production of the Fabs is not described
On to B3, for which the binding result in experiment [3] is reported as “binds”.

B4: CAlleR 8 (anti-Bet v1 chimeric allergen receptor with the scFv of mAb 8, CD28 and CD3ζ domains) (other)
VH: EVQLVQSGAEVKKPGDSLKISCKGSGYSFSNFWIGWVRQMPGKGLELMGIVYPGDSDTKYRPSFLGQVTISADKSIATAFLQWSRLTASDTAIYYCARLGATYAGADFWGQGTLVTVSS
VL: DIQMTQSPSSLSASVGDRVTITCRASQTIVTYLNWYQQKPGKAPKLLIYAASNLQSGVPSRFSGSGSGTDFTLTISSLQPEDFAIYYCQQSYAAFGEGTKVEIK
notes: scFv derived from mAb 8 (variable domains as in m3; GenBank within PZ143166-PZ143179); CD28 hinge, transmembrane and intracellular (costimulatory) domains; CD3ζ intracellular signaling domain; Second-generation CAR design in pCDH-EF1-FHC (Addgene 64874), as in Muller et al., 2021a; The murine CAlleR 8 (mouse CD28 and CD3ζ domains) is another construct and has no row; source: primary human T …
For the molecule B4, the binding result in experiment [4] is given as “binds”.

B5: CAlleR 5 (anti-Bet v1 chimeric allergen receptor with the scFv of mAb 5, CD28 and CD3ζ domains) (other)
VH: EVQLVQSGAEVKKPGESLNISCNGSGYNFTKYWIAWVRQMPGKGLEWMGIIYPGDSDTKYRPSFQGQVTISADKSITTAYLQWSRLKVSDTAIYYCARLGATYGGADYWGQGTLVTVSS
VL: DIQMTQSPSSLSASVGDRVTITCQASQSIVNYLNWYQQKPGKAPKLLIYAASSLQSGVPSRFSGSGSGTDFTLTISSLQPEDFATYYCQQSYAAFGEGTKVEIT
notes: scFv derived from mAb 5 (variable domains as in m2; GenBank within PZ143166-PZ143179); CD28 hinge, transmembrane and intracellular (costimulatory) domains; CD3ζ intracellular signaling domain; Second-generation CAR design in pCDH-EF1-FHC (Addgene 64874), as in Muller et al., 2021a; source: primary human T cells, lentivirally transduced, on cells
In the case of B5, in experiment [4], the binding result was “binds”.

B6: CAlleR 11 (anti-Bet v1 chimeric allergen receptor with the scFv of mAb 11, CD28 and CD3ζ domains) (other)
VH: EVELLESGGGLVQPGGSLRLSCVGSGFTFPSYAMTWVRQAPGKGLEWVSAISGGGENSGGSTYYADSVKGRFTISRDNSKNTLFLQMSSLRAEDTAVYYCTREPVSWAFGSGTEYFDYWGQGTLVTVSS
VL: QSVLTQPPSASGTPGQRVTISCSGSSSNIGSNTVTWYHQLPGTAPKLLIYNNHRRPSGVPDRFSGSKSGTAASLGISGLQSEDEAAYYCATWDDSLKGWVFGGGTKLTVL
notes: scFv derived from mAb 11 (variable domains as in m5; GenBank within PZ143166-PZ143179); CD28 hinge, transmembrane and intracellular (costimulatory) domains; CD3ζ intracellular signaling domain; Second-generation CAR design in pCDH-EF1-FHC (Addgene 64874), as in Muller et al., 2021a; source: primary human T cells, lentivirally transduced, on cells
Consider B6, for which, in experiment [4], the binding result is “binds”.
